Measurements reported in patent US20240150797A1, “BIOCATALYTICAL PRODUCTION OF DIHYDROCHALCONES” (Symrise AG, priority 2021, published 2024).

Key:
Assay type in all cases: biochemical
Conditions in all cases: purified CHI in 50 mM PBS, 100 μM substrate, 25° C.
[1] = Specific activity of purified CHI, absorbance decrease at 384 nm, hesperetin chalcone
Experimental: (§1) E. coli BL21 (DE3) cells containing one of the pET28b plasmids from Table 2 or Table 3 were used to inoculate 1 L LB medium at OD of 0.1. Cells were incubated at 37° C., 250 rpm until the OD reached 0.4-0.6 and induced by supplementing with 0.1 mM IPTG. After protein expression at 28° C., 250 rpm for 16 h, the cells were harvested by centrifugation at 4,000×g for 15 min. The harvested cells were lysed with 0.5 mg/mL lysozyme (Sigma-Aldrich), 0.4 U/mL Benzonase (Sigma-Aldrich) and BugBuster (Merck) at room temperature for 0.5 h to obtain a crude cell extract. The crude extract was centrifuged at 10,000×g for 30 min to remove the pellet. Recombinant proteins were purified by Ni-affinity chromatography (GE Healthcare). The supernatant of the crude extract was loaded on the column with 20 mM imidazole. The column was washed by 5 column volumes of 30 mM imidazole with 20 mM PBS (pH 7.4) and 500 mM NaCl. The target proteins were eluted by 150 mM imidazole with 20 mM PBS (pH 7.4) and 500 mM NaCl. Buffer exchange with 50 mM PBS (pH 7.5) was achieved by ultrafiltration with Amicon Ultra-15 (Merck). The activity of the respective purified enzyme was determined by measuring the absorbance decrease at 384 nm in the reaction mix (CHI in 50 mM PBS with 100 μM of either naringenin chalcone, hesperetin chalcone, eriodictyol chalcone, homoeriodictyol chalcone or 4-O-methyl butein at 25° C.).

[2] = Specific activity of purified CHI, absorbance decrease at 384 nm, homoeriodictyol chalcone
Experimental: as §1

[3] = Specific activity of purified CHI, absorbance decrease at 384 nm, naringenin chalcone
Experimental: as §1

[4] = Specific activity of purified CHI, absorbance decrease at 384 nm, eriodictyol chalcone
Experimental: as §1

B1: CHI7: Chalcone isomerase from Clostridium sp. SY8519, access no. WP_013978403.1 (protein)
chain: ADFKFEPMRSFIYVNCAKEDYRPKLQRWLYKTHVPDSIGQFEPYVTKYAFYPSFPTPPEGERFGYCSMQLTEHHWMVSDFDERLGIKAIAETFPPEVLLWQGNITEGMLEAMKKNGGAPGDDGGDSGNEARSTNMEGANPFIFCFAPYWWEDDIKGKGRTIEDGANYRWNVAIGYPEGVSAEEGDRWLFEEVIPVFEAAPECTRILHSKVKKEINGGSGMEHILEFWFENQSGWYQTAVEATKTLKKPAWAQQDQFPFLKPYHKFISVAVADFTMANNLVNYHGYIPRR
modifications: Clostridium sp. SY8519
Specific activity, Hesperetin chalcone [1]: 6.4
Specific activity, Homoeriodctiol chalcone [2]: 50.2
Specific activity, Naringenin chalcone [3]: 68.3
Specific activity, Eriodictyol chalcone [4]: 123.6

B2: CHI3: Chalcone isomerase from Clostridium sp. JN500901, access no. WP_119972745.1 (protein)
chain: SIEFKPMRSLIYVDVVKEDYRHMLKHWLYYHHIPDSISQFGPYVTKYAFYPALPTPPDGERFGTHRMQLTEHYWLVNPLTPEFKNKTMTEYFPVDVLKWQGNVPDDNEVAILEGKETEKVESGDAARSTGGDNGMPPFIWAFVPISWEEDLKGEGRSMEDGPNYRWQFVMKYPDGVPMEEGDKWFYKEVIPKFQDSPDVTRILTSKIIQNINDCPYQRIVEMWFNCPSGWHRAAVEKAREIKKPSWAKYDEFPYLKPKFEISSLFLTDIAESDNYTQYRGFIPMR
modifications: Clostridium sp. JN500901
Specific activity, Hesperetin chalcone [1]: 12.8
Specific activity, Homoeriodctiol chalcone [2]: 7.8
Specific activity, Naringenin chalcone [3]: 20.0
Specific activity, Eriodictyol chalcone [4]: 13.2

B3: CHI11: Chalcone isomerase from Eubacterium sp., access no. SCK02381.1 (protein)
chain: TKNMLGFEPMRSLIYVDVAKEDYRVKLENWLYKYHIPDSISQFGPYVSKYAFYQALPVPEGGERFGAIKMQLTEHYWLANPNNIAQFDHHKALTEYFPPDVLKWQGNLPDEDFQCENVEGDEARAVKGDASKGTVPFIFAFVPVWWEEDYKGAGRTIEDGPNYRWQMVIKFPDDAKDTGDKWLRDEFIPAFVECEETTRILSSKVIKEANGCEFDRVVEMWFEGPSAWKAAVGKAAKKVRRPAWFETEDFPYLTQSYGISSIFLSDIARSDNMTQYNGYVTMR
modifications: Eubacterium sp
Specific activity, Hesperetin chalcone [1]: 5.8
Specific activity, Homoeriodctiol chalcone [2]: 11.4
Specific activity, Naringenin chalcone [3]: 23.2
Specific activity, Eriodictyol chalcone [4]: 10.8

B4: CHI10: Chalcone isomerase from Clostridium sp. SY8519, access no. WP_013977558.1 (protein)
chain: ADFEFNPMRSLIYIDCVKNDYRHKLQYWLYKHHIPDSIAKFEPYVSKYAFYSALPVPEDGEEFGTYNYQLTEHYWLCNPLTADFAVNSLQESFTPDVLKWQGIIPDIDITPEMMAAMQNADDARASEGSEAPGFDLPPFIFAFLPLSWEFQTKGEKLTIEDGPNYRWQFLVKYPEAADAEQADKWLMEEVIPAFAQMDEVKRILSSKVKQEVNGCVYYRVVEMWFDSPSDWHRAVKEKTGAISKPEWASTDSFPYLRPKHEMASIFLSDIPTTDNLLQYRGFIPMR
modifications: Clostridium sp. SY8519
Specific activity, Hesperetin chalcone [1]: 1.2
Specific activity, Homoeriodctiol chalcone [2]: 0.2
Specific activity, Naringenin chalcone [3]: 0.7
Specific activity, Eriodictyol chalcone [4]: 2.5
